Laboratory results published in the supplement of paper PMC9112550, “Optimization of the antimicrobial peptide Bac7 by deep mutational scanning” (BMC Biology, 2022).

Test system: Escherichia coli TOP10
Assay: shrunken log2 fold change of peptide-encoding DNA abundance (4.5 h post-induction vs induction); higher = less antimicrobial activity (less host growth inhibition)
Settings: time post-induction: 4.5 h; library: site-saturation at positions 5, 18, 19, 20
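Also: peptides expressed intracellularly from a pBAD plasmid library in pooled LB shake-flask culture, induced with 0.3% L-arabinose, DNA abundance read by NGS, three biological replicates, DESeq2 with apeglm shrinkage.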

Sequence	shrunken log2 fold change
RRIRPRPPRLPRPRPRPCYTPRP	-0.531
RRIRMRPPRLPRPRPRPKMGPRP	-0.00235
RRIRWRPPRLPRPRPRPPMMPRP	0.203
RRIRSRPPRLPRPRPRPPHMPRP	-0.0602
RRIRMRPPRLPRPRPRPFKCPRP	-0.0731
RRIRFRPPRLPRPRPRPGDDPRP	0.342
RRIRFRPPRLPRPRPRPCITPRP	-0.709
RRIRKRPPRLPRPRPRPYWGPRP	-0.000921
RRIRERPPRLPRPRPRPVVAPRP	0.182
RRIRVRPPRLPRPRPRPCMHPRP	1.2
RRIRYRPPRLPRPRPRPGCHPRP	-0.711
RRIRARPPRLPRPRPRPPISPRP	0.027
RRIRMRPPRLPRPRPRPQPYPRP	-0.00544
RRIRCRPPRLPRPRPRPMNFPRP	-0.383
RRIRCRPPRLPRPRPRPLADPRP	0.4
RRIRCRPPRLPRPRPRPYNQPRP	-1.23
RRIRERPPRLPRPRPRPTHSPRP	-0.335
RRIRWRPPRLPRPRPRPMDNPRP	-0.0894
RRIRNRPPRLPRPRPRPRCQPRP	0.297
RRIRWRPPRLPRPRPRPSKYPRP	-0.632
RRIRGRPPRLPRPRPRPITWPRP	-0.0883
RRIRYRPPRLPRPRPRPAYPPRP	-0.422
RRIRYRPPRLPRPRPRPLWDPRP	-0.717
RRIRDRPPRLPRPRPRPRGWPRP	1.35
RRIRIRPPRLPRPRPRPYRCPRP	-0.0728

Sequence	shrunken log2 fold change
RRIRFRPPRLPRPRPRPAIVPRP	-0.0488
RRIRGRPPRLPRPRPRPYPHPRP	0.103
RRIRGRPPRLPRPRPRPMDEPRP	0.237
RRIRKRPPRLPRPRPRPHHDPRP	-0.121
RRIRPRPPRLPRPRPRPTWDPRP	0.42
RRIRRRPPRLPRPRPRPQEGPRP	-0.0768
RRIRKRPPRLPRPRPRPGISPRP	0.249
RRIRMRPPRLPRPRPRPSKDPRP	0.37
RRIRCRPPRLPRPRPRPRSAPRP	0.0532
RRIRCRPPRLPRPRPRPEHDPRP	-0.131
RRIRARPPRLPRPRPRPDLMPRP	0.354
RRIRFRPPRLPRPRPRPKYNPRP	-0.978
RRIRWRPPRLPRPRPRPYRFPRP	-0.0166
RRIRMRPPRLPRPRPRPTPSPRP	1.18
RRIRLRPPRLPRPRPRPDVRPRP	0.0235
RRIRHRPPRLPRPRPRPLLPPRP	-0.0821
RRIRARPPRLPRPRPRPTTMPRP	0.156
RRIRGRPPRLPRPRPRPHVNPRP	0.295
RRIRGRPPRLPRPRPRPYTPPRP	-0.526
RRIRYRPPRLPRPRPRPVCWPRP	0.196
RRIRWRPPRLPRPRPRPGRYPRP	-0.137
RRIRTRPPRLPRPRPRPFGRPRP	0.0376
RRIRLRPPRLPRPRPRPQEFPRP	0.00998
RRIRTRPPRLPRPRPRPCAYPRP	-0.164
RRIRDRPPRLPRPRPRPPWVPRP	-0.0472

Sequence	shrunken log2 fold change
RRIRRRPPRLPRPRPRPQVQPRP	0.0152
RRIRQRPPRLPRPRPRPHPDPRP	-0.0624
RRIRVRPPRLPRPRPRPERKPRP	0.111
RRIRDRPPRLPRPRPRPICKPRP	0.00282
RRIRMRPPRLPRPRPRPERGPRP	1.39
RRIRPRPPRLPRPRPRPAYKPRP	-0.302
RRIRVRPPRLPRPRPRPRTTPRP	0.378
RRIRERPPRLPRPRPRPYMYPRP	-0.501
RRIRTRPPRLPRPRPRPFIMPRP	-0.339
RRIRSRPPRLPRPRPRPKTGPRP	-0.071
RRIRDRPPRLPRPRPRPFPMPRP	-0.0572
RRIRVRPPRLPRPRPRPMNRPRP	-0.182
RRIRGRPPRLPRPRPRPSTNPRP	0.271
RRIRRRPPRLPRPRPRPHNGPRP	-0.172
RRIRQRPPRLPRPRPRPVDAPRP	-0.0176
RRIRSRPPRLPRPRPRPRHDPRP	0.23
RRIRIRPPRLPRPRPRPHPIPRP	-0.265
RRIRVRPPRLPRPRPRPCRWPRP	0.182
RRIRIRPPRLPRPRPRPYVDPRP	-0.0276
RRIRIRPPRLPRPRPRPGIQPRP	-0.0834
RRIRYRPPRLPRPRPRPKTRPRP	-0.142
RRIRPRPPRLPRPRPRPHDNPRP	-0.347
RRIRHRPPRLPRPRPRPQKLPRP	-0.52
RRIRTRPPRLPRPRPRPEVQPRP	0.0183
RRIRFRPPRLPRPRPRPVIVPRP	-0.997
